The record followed here is patent US20240368309A1 (Hoffmann-La Roche, published 2024).

For experiment [1], the target named is T1, biotinylated monovalent EpCAM-Fc (human EpCAM ECD-Fc knob avi-his paired with Fc hole) (human, UniProt P01857 104-328 = IgG part, biotin on the avi tag (BirA co-expression)).
T1 construct: also called monovalent EpCAM-Fc construct; huEPCAM-Fc-knob (avi-His) + Fc hole (wt)
The experiment is described as follows: SPR ProteOn XPR36 off-rate, biotinylated monovalent EpCAM-Fc on NLC chip.

Experiment [2] addresses T2, human EpCAM on tumor cells (KATO-III, HT-29, MKN45, NCI-H1755) (human, UniProt P16422 24-314).
T2 construct: endogenous EpCAM of human tumor cell lines; also called epithelial cell adhesion molecule
T2 sequence: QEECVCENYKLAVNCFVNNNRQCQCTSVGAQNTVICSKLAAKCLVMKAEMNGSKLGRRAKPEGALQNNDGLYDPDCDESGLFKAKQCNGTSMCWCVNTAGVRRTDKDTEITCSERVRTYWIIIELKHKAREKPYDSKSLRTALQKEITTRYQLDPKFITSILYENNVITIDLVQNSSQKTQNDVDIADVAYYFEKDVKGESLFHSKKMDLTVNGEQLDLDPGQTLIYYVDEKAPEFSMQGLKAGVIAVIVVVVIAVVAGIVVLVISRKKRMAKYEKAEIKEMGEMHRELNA
Nature of the experiment: flow cytometry, KATO-III cells (EpCAM+); PE-labelled goat anti-human detection; fluorescence intensity [PE] against concentration (nM); CD19-targeted negative control. Background: In flow cytometry, cells or beads pass a laser one at a time.

B1: parental murine anti-human EpCAM antibody MOC31 (antibody, V domains shown)
VH: QVQLQQSGPELKKPGETVKISCKASGYTFTNYGMNWVKQAPGRGLKWMGWINTYTGESTYADDFKGRFAFSLETSASAAYLQINNLKNEDTATYFCARFAIKGDYWGQGTTLTVSS
VL: DIVMTQSAFSNPVTLGTSASISCRSTKSLLHSNGITYLYWYLQKPGQSPQLLIYQMSNLASGVPDRFSSSGSGTDFTLRISRVEAEDVGVYYCAQNLEIPRTFGGGTKLEIK
With B1, in experiment [1], the off-rate (koff) – broadly, a measure of how fast the partners let go of each other – worked out at 0.00024 s⁻¹.

B2: CD19 (8B8-2B11)-CD28 (SA_variant 8) 1+1 (bispecific antibody, human IgG1, kappa, L234A L235A)
heavy 1: not shown
light 1: not shown
heavy 2: DIVMTQTPLSLSVTPGQPASISCKSSQSLETSTGTTYLNWYLQKPGQSPQLLIYRVSKRFSGVPDRFSGSGSGTDFTLKISRVEAEDVGVYYCLQLLEDPYTFGQGTKLEIKSSASTKGPSVFPLAPSSKSTSGGTAALGCLVKDYFPEPVTVSWNSGALTSGVHTFPAVLQSSGLYSLSSVVTVPSSSLGTQTYICNVNHKPSNTKVDKKVEPKSCDKTHTCPPCPAPEAAGGPSVFLFPPKPKDTLMISRTPEVTCVVVDVSHEDPEVKFNWYVDGVEVHNAKTKPREEQYNSTYRVVSVLTVLHQDWLNGKEYKCKVSNKALGAPIEKTISKAKGQPREPQVCTLPPSRDELTKNQVSLSCAVKGFYPSDIAVEWESNGQPENNYKTTPPVLDSDGSFFLVSKLTVDKSRWQQGNVFSCSVMHEALHNHYTQKSLSLSP
light 2: QVQLVQSGAEVKKPGASVKVSCKASGYTFTDYIMHWVRQAPGQGLEWMGYINPYNDGSKYTEKFQGRVTMTSDTSISTAYMELSRLRSDDTAVYYCARGTYYYGPQLFDYWGQGTTVTVSSASVAAPSVFIFPPSDEQLKSGTASVVCLLNNFYPREAKVQWKVDNALQSGNSQESVTEQDSKDSTYSLSSTLTLSKADYEKHKVYACEVTHQGLSSPVTKSFNRGEC
notes: control; huIgG1 PG-LALA CrossFab; charged modifications in CD28 Fab (knob), VH/VL exchange in CD19 Fab (hole); also called Molecule H; P1AF0175
As for B2, in experiment [2], the binding result is reported as “no binding (tested: 500 nM)”.
